This is an account of results in paper PMC8113518, “JRAB/MICAL-L2 undergoes liquid–liquid phase separation to form tubular recycling endosomes” (Communications Biology, 2021).

The experiment addresses T1, His-GFP-JRAB/MICAL-L2 (mouse, UniProt Q3TN34 1-1009).
T1 construct: JRAB/MICAL-L2, mouse; cDNA encoding JRAB/MICAL-L2 subcloned into pcDNAHisMax-GFP; The plasmid encodes the His6-tag followed by GFP, then the protein's cDNA; source: HEK293, transfected, purified (cOmplete resin, Superdex 200)
Put plainly: recruitment to liposomes seen by confocal microscopy; purified His-GFP-JRAB/MICAL-L2 and His-mCherry-Rab8ADA (150 nM) mixed with PC:PS (7:3) liposomes in 20 mM HEPES-NaOH pH 7.5, 100 mM KCl, 1 mM DTT. As to conditions: both partners purified.

T1 sequence (Q3TN34 whole entry): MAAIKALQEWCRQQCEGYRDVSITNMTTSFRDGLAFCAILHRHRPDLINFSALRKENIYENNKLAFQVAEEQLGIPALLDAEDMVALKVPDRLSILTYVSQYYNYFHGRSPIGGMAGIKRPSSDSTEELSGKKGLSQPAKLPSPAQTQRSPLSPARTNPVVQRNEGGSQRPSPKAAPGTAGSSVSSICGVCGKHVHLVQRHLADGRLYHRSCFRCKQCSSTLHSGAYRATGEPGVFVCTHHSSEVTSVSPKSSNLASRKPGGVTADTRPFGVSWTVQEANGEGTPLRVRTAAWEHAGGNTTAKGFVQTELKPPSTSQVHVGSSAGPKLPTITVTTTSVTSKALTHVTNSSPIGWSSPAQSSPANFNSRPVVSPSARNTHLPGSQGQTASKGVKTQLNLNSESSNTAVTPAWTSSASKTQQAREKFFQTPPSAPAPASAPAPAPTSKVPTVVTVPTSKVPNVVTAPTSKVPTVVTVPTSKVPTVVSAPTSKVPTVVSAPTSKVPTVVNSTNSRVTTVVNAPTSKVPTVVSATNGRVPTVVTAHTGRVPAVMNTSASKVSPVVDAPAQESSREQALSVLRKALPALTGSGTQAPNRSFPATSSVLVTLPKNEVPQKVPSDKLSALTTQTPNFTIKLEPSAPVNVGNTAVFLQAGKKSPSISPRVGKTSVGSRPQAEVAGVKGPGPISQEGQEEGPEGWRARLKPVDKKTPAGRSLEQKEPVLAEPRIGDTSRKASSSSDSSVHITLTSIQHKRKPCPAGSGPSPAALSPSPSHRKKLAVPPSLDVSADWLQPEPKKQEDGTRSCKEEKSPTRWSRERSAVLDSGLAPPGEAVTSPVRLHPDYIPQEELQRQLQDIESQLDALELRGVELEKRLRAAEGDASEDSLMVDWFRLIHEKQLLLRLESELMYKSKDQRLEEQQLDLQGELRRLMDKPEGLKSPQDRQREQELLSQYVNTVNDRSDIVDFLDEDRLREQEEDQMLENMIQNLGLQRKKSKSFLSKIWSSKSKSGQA

B1: His-mCherry-Rab8ADA (natural protein, mouse, UniProt P55258 1-207, looked up)
chain: MAKTYDYLFKLLLIGDSGVGKTCVLFRFSEDAFNSTFISTIGIDFKIRTIELDGKRIKLQIWDTAGLERFRTITTAYYRGAMGIMLVYDITNEKSFDNIRNWIRNIEEHASADVEKMILGNKCDVNDKRQVSKERGEKLALDYGIKFMETSAKANINVENAFFTLARDIKAKMDKKLEGNSPQGSSHGVKITVEQQKRTSFFRCSLL
notes: Rab8A, mouse, dominant-active mutant Q67L; cDNA subcloned into pcDNAHisMax-mCherry; The plasmid encodes the His6-tag followed by mCherry, then the protein's cDNA; Purified from the membrane (pellet) fraction; source: HEK293, transfected, purified from the CHAPS-extracted pellet fraction (Talon resin)
Consider B1, for which the binding result is listed as “binds”.
